Source: FireProtDB (doi:10.1021/bi982158q)

B1: Cytochrome b5, P00171 (parent)
chain: MAEESSKAVKYYTLEEIQKHNNSKSTWLILHYKVYDLTKFLEEHPGGEEVLREQAGGDATENFEDVGHSTDARELSKTFIIGELHPDDRSKITKPSESIITTIDSNPSWWTNWLIPAISALFVALIYHLYTSEN

Variants of: B1
Conditions: Bos taurus, pH 7, K2HPO4 5 mM, transition: 2, reversible: Yes, structure 1CYO, whole UniProt chain shown; for denaturant m value / denaturant midpoint (higher = more stable) / unfolding free energy: 25 °C, Urea; for Tm / change of melting temperature, mutant - wild type (higher = more stable): Thermal

Row | Variant | denaturant m value (Absorbance) [kcal/mol/M] | denaturant midpoint (higher = more stable) (Absorbance) [M] | unfolding free energy (Absorbance) [kcal/mol] | denaturant m value (Fluorescence) [kcal/mol/M] | denaturant midpoint (higher = more stable) (Fluorescence) [M] | unfolding free energy (Fluorescence) [kcal/mol] | Tm (Absorbance) [°C] | change of melting temperature, mutant - wild type (higher = more stable) (Absorbance) [°C] | Tm (Fluorescence) [°C] | change of melting temperature, mutant - wild type (higher = more stable) (Fluorescence) [°C]
1 | MAEESSKAVKYYTLEEIQKHNNCKSTWLILHYKVYDLTKFLEEHPGGEEVLCEQAGGDATENFEDVGHSTDARELSKTFIIGELHPDDRSKITKPSESIITTIDSNPSWWTNWLIPAISALFVALIYHLYTSEN [S23C R52C] | 0.81 | 6.4 | 5.2 | 0.93 | 3.7 | 3.4 | 76 | 0.8 | 60.8 | 10.7
2 | MAEESSKAVKYYTLEEIQKHNNCKSTWLILHYKVYDLTKFLEEHPGGEEVLREQAGGDATENFEDVGHSTDARELSKTFIIGELHPDDRSKITKPSESIITTIDSNPSWWTNWLIPAISALFVALIYHLYTSEN [S23C] | 0.97 | 6.5 | 6.9 | 0.56 | 2.5 | 1.4 | 75.5 | 0.3 | 52.7 | 2.6
